Test results taken from article PMC6150519.

How the values were obtained:
GIRK1/2-CFP [1] = target: GIRK1/2-CFP
GIRK1/2-CFP [2] = target: GIRK1/2-CFP; remark: listed apart in the source
GIRK1/2-CFP [3] = test: FRET or BRET; acceptor bleaching under TIRF illumination in living HEK293T cells co-transfected with receptor-YFP (or prestin-YFP) and GIRK1/2-CFP; G protein subunits not additionally transfected; absence or presence of oxo-M (10 uM)

Substance: M1R-YFP (from UniProt P04761 1-460) (receptor)
- agonist-induced GIRK channel current density (ΔImax), oxo-M 10 uM, tandem constructs M1R-YFP-34/100/265-GIRK1/2, PTX (-); decreased with the increase in the linker length (GIRK1/2-CFP [1]): 11.3 pA/pF

Substance: M2R-YFP (from UniProt P06199 1-466) (receptor)
- agonist-induced GIRK channel current density (ΔImax), oxo-M 10 uM, tandem constructs M2R-YFP-100/265/535-GIRK1/2, PTX (-); not changed with the increases in the linker length (GIRK1/2-CFP [2]): 62 pA/pF

Substance: receptor-YFP with the long chain in the middle of M2R-i3 (K221-P379) replaced with SGGGS
- FRET efficiency (GIRK1/2-CFP [3]): 5.5%
